This is an account of results in PMC10890041.

For this assay, the target named is B8(RH)4 ligand: eightfold polymerized B domain from the native Protein A, C-terminally fused with th. The assay can be described thus: static batch adsorption on an affinity membrane; Protein A ligand coupled by NHS/EDC (protocol I) to ALA-functionalized ALA@Au_PES200 membrane (6 mm); Trastuzumab 0-0.5 mg/mL in PBS pH 7.4, 1 h, 25 °C, 1000 rpm; supernatant UV-vis at 280 nm, ligand load by direct BCA.

For Trastuzumab (antibody), the stoichiometry N (antibody per Protein A ligand) was 3.
